Reference: paper PMC2268108

Columns and labels:
[1] = molecular target: canine kidney Na,K-ATPase (αβ protomer), erythrosin-labelled (dog (endogenous in kidney)) (UniProt P50997); experiment: time-resolved phosphorescence anisotropy
[2] = molecular target: Na/K pump α1 subunit-CFP fusion; experiment: FRET or BRET

stoichiometry N [1]	increase of donor fluorescence on acceptor photobleaching [2] [%]	Substance
2	–	canine kidney Na,K-ATPase (αβ protomer), erythrosin-labelled (from UniProt P50997;P06583) (complex)
–	23.8	phospholemman-citrineYFP fusion (natural protein)
